{
  "source": "paper PMC9225675",
  "about": "(mAbs, 2022)",
  "binders": {"B1": {"name": "H5 mAb (broadly neutralizing antibody) (antibody, V domains shown)", "VH": "EVQLQESGPGLVRPSETLSLTCAVSGYSISSGMGWGWIRQPPGKGLEWIGSIDQRGSTYYNPSLKSRVTISVDTSKNQFSLKLSSVTAADTAVYYCARDAGHAVDMDVWGKGTTVTVSS", "VL": "DIQMTQSPSSVSASVGDRVTITCRASQGISRWLAWYQQKPGKAPKLLIYAASSLQSGVPSRFSGSGSGTDFTLTISSLQPEDFATYYCQQGYVFPLTFGGGTKVEIK"}},
  "biological_target": "T1, LukF component of Panton-Valentine Leukocidin (LukF-PV) (Staphylococcus aureus, strain )",
  "T1 chain": "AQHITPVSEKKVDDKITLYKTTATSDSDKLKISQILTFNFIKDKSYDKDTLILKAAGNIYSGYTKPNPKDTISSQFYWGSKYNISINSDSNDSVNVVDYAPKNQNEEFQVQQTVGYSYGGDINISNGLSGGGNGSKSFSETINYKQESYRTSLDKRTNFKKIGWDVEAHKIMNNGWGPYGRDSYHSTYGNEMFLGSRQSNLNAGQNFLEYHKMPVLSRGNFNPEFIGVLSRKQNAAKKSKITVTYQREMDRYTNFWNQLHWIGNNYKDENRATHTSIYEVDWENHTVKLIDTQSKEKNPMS",
  "experiment": "BLI",
  "data": [
    {"binder": "B1", "values": [
      {"measurement": "Kd", "result": 0.4, "unit": "nM"}
    ]}
  ]
}
